Patent US7063946B2, “Methods, reagents, kits and apparatus for protein function analysis” (Meso Scale Technologies, LLC., priority 2001, dated 2006)

Test system: phospho-pEY
Assay: Protein tyrosine phosphatase activity assay with phospho-pEY substrate
Assay type: biochemical
Details: 5 nM phospho-pEY, 45 min
Procedure: Several proteins were produced in an in vitro transcription and translation reaction using 1–150 ng of plasmid DNA including: Mock Luciferase (Promega); protein tyrosine phosphatase; non-receptor type 2 (PTP-N2, IMAGE ID# 3872164, Incyte Genomics, CA); and fer (fms/fps related) protein kinase, testis specific 2 clone (Fert2, IMAGE ID# 4485050, Incyte Genomics, CA). The proteins were produced and immobilized on SA coated NPT-IPR plates, as described in Example 7. […]
A tyrosine phosphate substrate was prepared by enzymatically phosphorylating poly(Glu, Tyr). […] The phosphorylation in the product was determined by transferring serially diluted reaction mixture to a streptavidin-coated NPT IPR plate and assaying for phosphorylated-poly(Glu, Tyr) as described in previous examples (see, e.g., Example 7).
The phosphorylated poly(Glu, Tyr) was used as a substrate to measure the phosphatase activity of the purified and immobilized PTP-N2. […] Following this incubation 45 μl of this mixture was transferred to a streptavidin-coated NPT IPR plate and the solution analyzed for phospho-poly(Glu, Tyr) content as described above.

B1: PTP-N2: protein tyrosine phosphatase, non-receptor type 2, IMAGE ID# 3872164 (protein, UniProt P17706 1-415, looked up)
Tyrosine-protein phosphatase …: MPTTIEREFEELDTQRRWQPLYLEIRNESHDYPHRVAKFPENRNRNRYRDVSPYDHSRVKLQNAENDYINASLVDIEEAQRSYILTQGPLPNTCCHFWLMVWQQKTKAVVMLNRIVEKESVKCAQYWPTDDQEMLFKETGFSVKLLSEDVKSYYTVHLLQLENINSGETRTISHFHYTTWPDFGVPESPASFLNFLFKVRESGSLNPDHGPAVIHCSAGIGRSGTFSLVDTCLVLMEKGDDINIKQVLLNMRKYRMGLIQTPDQLRFSYMAIIEGAKCIKGDSSIQKRWKELSKEDLSPAFDHSPNKIMTEKYNGNRIGLEEEKLTGDRCTGLSSKMQDTMEENSESALRKRIREDRKATTAQKVQQMKQRLNENERKRKRWLYWQPILTKMGFMSVILVGAFVGWTLFFQQNAL
ECL signal: 70,574
